Reference: patent US20110294728, “Antiviral Polypeptides” (published 2011)

B1: 19/36-mer DNA/DNA primer/template (HIV-1 PBS) (dsDNA)
DNA 1: TCCCTGTTCGGGCGCCACT
DNA 2: TGTGGAAAATCTCATGCAGTGGCGCCCGAACAGGGA
B2: 19/36-mer (printed 18/36) DNA/DNA primer/template, unlabelled (dsDNA)
DNA 1: TCCCTGTTCGGGCGCCACT
DNA 2: B1 DNA 2

Assays:
[1] = target: HIV-1 reverse transcriptase p66/p51 heterodimer (HIV-1 (BH10), UniProt P03366;P03366 P03366:600-1159,P03366:600-1039); experiment: steady-state fluorescence quenching; 50 mM Tris-HCl pH 8.0, 50 mM KCl, 10 mM MgCl2, 1 mM DTT, 25 C; details: tags: recombinant from E. coli; His-tagged and untagged preparations described, form used in the titration not specified; label: 6-FAM at primer 3' end; primer/template with 5' single-stranded template overhang
[2] = target: HIV-1 reverse transcriptase p66/p51 in complex with PAW peptide (HIV-1 (BH10), UniProt P03366;P03366 P03366:600-1159,P03366:600-1039); experiment: steady-state fluorescence quenching; 10 uM PAW; 50 mM Tris-HCl pH 8.0, 50 mM KCl, 10 mM MgCl2, 25 C; details: protein: synthetic; label: 6-FAM at primer 3' end; primer/template with 5' single-stranded template overhang
[3] = target: HIV-1 reverse transcriptase p66/p51 in complex with FITC-PAW (HIV-1 (BH10), UniProt P03366;P03366 P03366:600-1159,P03366:600-1039); experiment: quenching of FITC-PAW pre-bound to RT on titration with unlabelled p/t; 10 mM MgCl2, 25 C; details: tags: PAW with C-terminal Cys-FITC; primer/template with 5' single-stranded template overhang

| Binder | Kd [1] [nM] | Kd [2] [nM] | Kd [3] [nM] |
| --- | --- | --- | --- |
| B1 | 22 | 99 |  |
| B2 |  |  | 66.5 |
